Source: publication PMC6608616 (IUCrJ, 2019)

Target: Tryptophan synthase β subunit (TrpB) from Streptococcus pneumoniae (Streptococcus pneumoniae TIGR4, UniProt Q97P32 4-407, PLP covalently attached to Lys91)
Assay: crystal structure
Settings: both partners purified

B1: Tryptophan synthase α subunit (TrpA) from Streptococcus pneumoniae (enzyme)
chain: MPKTLTEKLNAIKAAGKGIFVPYIMAGDHEKGLDGLAETIHFLEDLGVSAIEVGIPFSDPVADGPVIEEAGLRSLAHGTSTQALVETLKTIETEIPLVIMTYFNPLFQYGVENFVKDLADTAVKGLIIPDLPHEHANFVEPFLANTDIALIPLVSLTTGIERQKELIEGAEGFIYAVAINGVTGKSGNYRADLDKHLAQLHQVADIPVLTGFGVSSQADLERFNAVSDGVIVGSKIVKALHQGEPIQDFIRQAVAYQK
  binding result: binds
